Measurements from patent publication CN116789813A.

Legend:
[1] = molecular target: 野生型金黄色葡萄球菌α-溶血素(wtHla) (Staphylococcus aureus (strain MRSA 252)); assay: cell-based or functional assay
[2] = molecular target: 野生型金黄色葡萄球菌α-溶血素(wtHla) (Staphylococcus aureus (strain MRSA 252)); assay: ELISA, wtHla coated at 2μg/mL, anti-human IgG Fab-HRP detection

B1: 全人源Hla单克隆抗体Hla-38 (antibody, V domains shown)
VH: QVQLLESGGGVVQPGRSLRLSCIVSGFDLNSFAMHWVRQPPGKGLEWVAVIWHDGSERFYAASVKGRFTISRDTSRNTLFLQMNSLRVEDTAVYYCAKSGDYYENSGYFGSWGQGALVTVSS
VL: ELVLTQSPATLSVSPGERATLSCRASQSVGNDLAWYQQKPGQAPRLLIYGASTRATGIPARFSGSGFGTEFTLTISSLQSEDFAVYYCQQYNNWWTFGQGTKVDIK
[1]
  保护率 (mice injected i.p. with 15μg wtHla pre-incubated with 2.5μg antibody): < 30%
  保护率 (mice injected i.p. with 15μg wtHla pre-incubated with 5μg antibody): < 30%
  保护率 (mice injected i.p. with 15μg wtHla pre-incubated with 10μg antibody): 50%
  小鼠生存率 (mice injected i.p. with 15μg wtHla pre-incubated with 20μg antibody): > 80%
[2]
  EC50: 0.33 µg/mL
